According to paper PMC6377645, “Structural insights into chaperone addiction of toxin-antitoxin systems” (Nature Communications, 2019):

Biological target: Mtb-HigA1^ΔC42 (Mtb-HigA1 deleted of the last 42 residues) (Mycobacterium tuberculosis)
Test: SEC-MALS; Superdex 200 Increase 5/150; 20 mM MES, 200 mM NaCl, pH 6.5; 15 °C; Mtb-SecB^TA 49.1 µM, Mtb-SecB^TA/HigA1 6.5 µM, Mtb-HigA1^ΔC42 100 µM

Mtb-HigA1^ΔC42 (Mtb-HigA1 deleted of the last 42 residues) (domain or fragment)
stoichiometry N: 2
